How the values were obtained:
[1] = target: HAx3-tagged Cho1 (phosphatidylserine synthase from Candida albicans) (Candida albicans); test: native gel or EMSA; BN-PAGE and anti-HA Western blot of SMA2000-solubilised membrane fractions (SMALPs), 1-4% SMA2000, 30 or 60 min, 37 °C
[2] = target: HAx3-tagged Cho1 (phosphatidylserine synthase from Candida albicans) (Candida albicans); test: native gel or EMSA; BN-PAGE and anti-HA Western blot of Cho1-HAx3 pulled down with anti-HA beads and eluted harshly: 50 mM NaOH + 0.05% digitonin, then 1 M Tris pH 8.5

Substance: HAx3-tagged Cho1 (phosphatidylserine synthase from Candida albicans) (from UniProt A0A1D8PF32 1-273) (enzyme)
- stoichiometry N [1]: 2
- stoichiometry N [2]: 2

— publication PMC10248529
